This test has as its target [Met-(-1)]rOncG20 (Rana pipiens).

Among the data in patent US6045793 are Fold Difference of IC50 (ng/ml) in rabbit reticulocyte lysate, (+)PRI against (-)PRI and IC50 (ng/ml) of the RNase for inhibition of protein synthesis in rabbit reticulocyte lysate, (+)PRI values, retold here.

As to “Placental ribonuclease inhibitor (from UniProt P13489)”, the Fold Difference of IC50 (ng/ml) in rabbit reticulocyte lysate, (+)PRI against (-)PRI came out at 0.9 fold and the IC50 (ng/ml) of the RNase for inhibition of protein synthesis in rabbit reticulocyte lysate, (+)PRI is 24 ng/mL.
